Results published in patent publication US20210147541A1 (Kyowa Kirin, published 2021).
Where two headings read alike, the source gives them in different places. Values belong to the binder of their own block, whether it stands above or below them.

Key:
[1] = target: T1, mouse CADM3 (mouse, UniProt Q99N28 23-396); assay: flow cytometry, 10 ug/mL, mouse CADM3/Expi293F vs parent Expi293F cells
T1 construct: Full-length gene expressed transiently on Expi293F cells; also called mouse CADM3/Expi293F cells; Mouse CADM3-expressing cells
T1 sequence: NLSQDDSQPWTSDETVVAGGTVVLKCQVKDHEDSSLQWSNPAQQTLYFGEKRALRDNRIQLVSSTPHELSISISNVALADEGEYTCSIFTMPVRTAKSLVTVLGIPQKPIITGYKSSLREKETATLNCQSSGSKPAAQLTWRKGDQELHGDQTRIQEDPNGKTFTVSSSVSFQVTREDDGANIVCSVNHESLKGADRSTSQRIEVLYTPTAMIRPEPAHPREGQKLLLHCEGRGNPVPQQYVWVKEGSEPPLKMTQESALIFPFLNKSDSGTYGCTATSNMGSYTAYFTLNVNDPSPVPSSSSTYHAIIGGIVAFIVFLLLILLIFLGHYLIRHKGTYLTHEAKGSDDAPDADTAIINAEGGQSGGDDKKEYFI
Description: (§1) After washing with SB, the cells were suspended in SB, and the fluorescence intensity of each cell was measured using a flow cytometer FACS CANTO II (manufactured by Becton, Dickinson and Company). Note that as a negative control, 10 μg/mL of the anti-AVM antibody was used.
(§2) The detection results were analyzed, and a mean fluorescence intensity (MFI) was calculated using a geometric mean. Further, with respect to the MFI when the concentration of each antibody was 10 μg/mL, the ratio of the MFI (mean fluorescence intensity ratio) between the human CADM3/Expi293F cells and the Expi293F cells (parent cell line) was calculated.
Further, also with respect to AVM IgG4PE(R409K)_iCADM3_3R1-L5 dVHH, AVM IgG4PE(R409K)_iCADM3_3R1-L8 dVHH, AVM IgG4PE(R409K)_iCADM3_3R1-L10 dVHH, and AVM IgG4PE(R409K)_iCADM3_3R1-L11 dVHH, reactivity with the Expi293F cells, the human CADM3/Expi293F cells, and the mouse CADM3/Expi293F cells was analyzed by the same procedure, and the results are shown in Table 5.

[2] = target: T2, hCADM3-GST (human); assay: SPR (Biacore T-100), antibody captured, hCADM3-GST as analyte
T2 construct: also called extracellular domain of human CADM3 to which GST was added at the C-terminal side; human CADM3-GST
Description: (§3) The affinity of the anti-CADM3 antibodies produced in Example 2 for human CADM3 and mouse CADM3 was measured using Biacore T-100 (GE Healthcare). Each of the antibodies was immobilized on a […] sensor chip using a Human antibody Capture kit, and the binding ability was evaluated using hCADM3-GST and mCADM3-GST produced in Example 4 as analytes.
(§4) With respect to the produced humanized anti-CADM3 antibodies, affinity for CADM3 by surface plasmon resonance detection was evaluated by the same procedure as in Example 6.

[3] = target: T3, mCADM3-GST (mouse); assay: SPR (Biacore T-100), antibody captured, mCADM3-GST as analyte
T3 construct: also called extracellular domain of mouse CADM3 to which GST was added at the C-terminal side; mouse CADM3-GST
Description: as §3, §4

[4] = target: T4, human CADM3 (human, UniProt Q8N126 25-398); assay: flow cytometry, 10 ug/mL, human CADM3/Expi293F vs parent Expi293F cells
T4 construct: Full-length gene expressed transiently on Expi293F cells; also called cell adhesion molecule 3; human CADM3/Expi293F cells
T4 sequence: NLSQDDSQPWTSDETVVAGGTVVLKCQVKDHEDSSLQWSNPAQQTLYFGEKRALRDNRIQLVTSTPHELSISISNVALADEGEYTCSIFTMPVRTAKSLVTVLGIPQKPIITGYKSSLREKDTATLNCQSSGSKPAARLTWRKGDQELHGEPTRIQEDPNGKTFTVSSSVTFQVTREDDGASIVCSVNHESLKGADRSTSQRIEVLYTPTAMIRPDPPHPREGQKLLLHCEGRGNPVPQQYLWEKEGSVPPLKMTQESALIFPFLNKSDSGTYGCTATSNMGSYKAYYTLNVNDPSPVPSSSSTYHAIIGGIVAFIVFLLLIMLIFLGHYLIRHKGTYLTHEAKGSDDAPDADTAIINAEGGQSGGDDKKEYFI
Description: By using the cells, the reactivity of the antibodies produced in Example 2 with the CADM3-expressing cells was analyzed by a fluorescence activated cell sorting (FACS) method according to the following procedure.
as §1, §2

[5] = target: T1, mouse CADM3; assay: flow cytometry, 10 ug/mL, mouse CADM3/Expi293F vs parent Expi293F cells; remark: listed apart in the source
[6] = target: T4, human CADM3; assay: flow cytometry, 10 ug/mL, human CADM3/Expi293F vs parent Expi293F cells; remark: listed apart in the source
Description: as §1, §2
(§5) With respect to the produced humanized anti-CADM3 VHH-Fc antibodies, reactivity with Expi293F cells, human CADM3/Expi293F cells, and mouse CADM3/Expi293F cells was analyzed by the same procedure as in Example 3.

[7] = target: T1, mouse CADM3; assay: flow cytometry, 10 ug/mL, mouse CADM3/Expi293F vs parent Expi293F cells; remark: listed apart in the source
Description: as §1, §2, §5

[8] = target: T2, hCADM3-GST; assay: SPR (Biacore T-100), antibody captured, hCADM3-GST as analyte; remark: listed apart in the source
Description: as §3
(§6) The obtained sensorgram was analyzed with BIA evaluation software, and the dissociation constant (KD value) was calculated.

[9] = target: T3, mCADM3-GST; assay: SPR (Biacore T-100), antibody captured, mCADM3-GST as analyte; remark: listed apart in the source
Description: as §3, §6

- Mean fluorescence intensity ratio [1]: 3.65
B1: AVM IgG4PE(R409K)_iCADM3_3R1-L8 dVHH (bispecific antibody)
heavy: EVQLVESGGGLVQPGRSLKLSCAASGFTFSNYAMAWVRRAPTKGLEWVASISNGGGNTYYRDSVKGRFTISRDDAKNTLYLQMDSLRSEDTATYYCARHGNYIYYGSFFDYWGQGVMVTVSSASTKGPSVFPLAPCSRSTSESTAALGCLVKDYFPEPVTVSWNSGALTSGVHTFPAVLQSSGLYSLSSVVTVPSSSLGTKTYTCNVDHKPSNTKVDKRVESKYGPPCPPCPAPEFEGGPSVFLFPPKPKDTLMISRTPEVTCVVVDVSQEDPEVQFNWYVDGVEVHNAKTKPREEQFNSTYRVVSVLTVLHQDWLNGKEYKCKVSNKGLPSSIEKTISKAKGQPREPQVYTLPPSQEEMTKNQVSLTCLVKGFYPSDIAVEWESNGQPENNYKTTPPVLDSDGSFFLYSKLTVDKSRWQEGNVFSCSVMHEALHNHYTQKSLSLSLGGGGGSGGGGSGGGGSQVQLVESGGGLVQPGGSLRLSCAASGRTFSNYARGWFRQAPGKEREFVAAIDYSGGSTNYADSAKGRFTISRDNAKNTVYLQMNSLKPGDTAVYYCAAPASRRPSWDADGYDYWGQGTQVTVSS
light: QFVLSQPNSVSTNLGSTVKLSCKRSTGNIGSNYVSWYQQHEGRSPTTMIYRDDKRPDGVPDRFSGSIDRSSDSALLTINNVQTEDEADYFCQSYSSGINIFGGGTKLTVLGQPKAAPSVTLFPPSSEELQANKATLVCLISDFYPGAVTVAWKADSSPVKAGVETTTPSKQSNNKYAASSYLSLTPEQWKSHRSYSCQVTHEGSTVEKTVAPTECS
notes: also called anti-AVM-IgG4-CADM3 VHH bispecific antibody

- Mean fluorescence intensity ratio [1]: 4.66
B2: AVM IgG4PE(R409K)_iCADM3_3R1-L11 dVHH (bispecific antibody)
heavy: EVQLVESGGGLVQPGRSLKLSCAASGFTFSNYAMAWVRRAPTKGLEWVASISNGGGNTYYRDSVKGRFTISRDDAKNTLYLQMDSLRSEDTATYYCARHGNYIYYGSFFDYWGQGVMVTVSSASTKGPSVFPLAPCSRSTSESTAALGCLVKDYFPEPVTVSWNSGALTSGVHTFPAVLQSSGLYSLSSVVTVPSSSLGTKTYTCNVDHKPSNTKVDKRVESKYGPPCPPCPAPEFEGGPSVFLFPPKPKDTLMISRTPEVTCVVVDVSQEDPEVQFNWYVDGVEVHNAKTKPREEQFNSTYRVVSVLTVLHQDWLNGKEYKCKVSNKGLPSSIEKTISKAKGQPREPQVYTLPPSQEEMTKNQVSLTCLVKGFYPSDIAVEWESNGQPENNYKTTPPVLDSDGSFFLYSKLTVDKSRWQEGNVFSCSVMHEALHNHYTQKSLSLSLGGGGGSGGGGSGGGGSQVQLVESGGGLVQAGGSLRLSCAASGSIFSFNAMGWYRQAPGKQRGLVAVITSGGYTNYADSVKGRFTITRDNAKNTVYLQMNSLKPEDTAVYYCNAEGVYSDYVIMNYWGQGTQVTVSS
light: QFVLSQPNSVSTNLGSTVKLSCKRSTGNIGSNYVSWYQQHEGRSPTTMIYRDDKRPDGVPDRFSGSIDRSSDSALLTINNVQTEDEADYFCQSYSSGINIFGGGTKLTVLGQPKAAPSVTLFPPSSEELQANKATLVCLISDFYPGAVTVAWKADSSPVKAGVETTTPSKQSNNKYAASSYLSLTPEQWKSHRSYSCQVTHEGSTVEKTVAPTECS
notes: as for B1

- Mean fluorescence intensity ratio [1]: 1.78
B3: AVM IgG4PE(R409K)_iCADM3_3R1-L10 dVHH (bispecific antibody)
heavy: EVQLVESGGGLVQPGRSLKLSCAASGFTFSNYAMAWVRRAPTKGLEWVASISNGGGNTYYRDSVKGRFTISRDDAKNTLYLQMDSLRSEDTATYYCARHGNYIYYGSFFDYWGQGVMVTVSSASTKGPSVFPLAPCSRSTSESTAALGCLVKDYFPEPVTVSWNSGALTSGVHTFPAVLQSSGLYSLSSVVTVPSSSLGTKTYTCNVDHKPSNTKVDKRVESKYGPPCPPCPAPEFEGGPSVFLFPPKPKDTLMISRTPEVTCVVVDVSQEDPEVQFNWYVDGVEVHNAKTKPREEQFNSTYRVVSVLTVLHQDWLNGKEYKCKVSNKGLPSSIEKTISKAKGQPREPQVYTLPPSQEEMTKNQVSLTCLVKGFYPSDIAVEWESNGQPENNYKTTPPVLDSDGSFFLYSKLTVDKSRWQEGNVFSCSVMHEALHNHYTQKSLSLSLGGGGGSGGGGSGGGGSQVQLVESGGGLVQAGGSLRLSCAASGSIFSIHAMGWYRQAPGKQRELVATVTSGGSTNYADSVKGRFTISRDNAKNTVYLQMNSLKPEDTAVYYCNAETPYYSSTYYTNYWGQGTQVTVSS
light: QFVLSQPNSVSTNLGSTVKLSCKRSTGNIGSNYVSWYQQHEGRSPTTMIYRDDKRPDGVPDRFSGSIDRSSDSALLTINNVQTEDEADYFCQSYSSGINIFGGGTKLTVLGQPKAAPSVTLFPPSSEELQANKATLVCLISDFYPGAVTVAWKADSSPVKAGVETTTPSKQSNNKYAASSYLSLTPEQWKSHRSYSCQVTHEGSTVEKTVAPTECS
notes: as for B1

- Kd [2]: 12.5 nM
- koff [2]: 0.00051 s⁻¹
- kon [2]: 41000 M⁻¹ s⁻¹
- Kd [3]: 4.39 nM
- koff [3]: 0.00063 s⁻¹
- kon [3]: 140000 M⁻¹ s⁻¹
- Mean fluorescence intensity ratio [4]: 5.84
- Mean fluorescence intensity ratio [5]: 8.2
B4: iCADM3_3R1-L8 VHH-hG4PE(R409K) (Fc fusion)
chain: QVQLVESGGGLVQPGGSLRLSCAASGRTFSNYARGWFRQAPGKEREFVAAIDYSGGSTNYADSAKGRFTISRDNAKNTVYLQMNSLKPGDTAVYYCAAPASRRPSWDADGYDYWGQGTQVTVSS
notes: VHH-Fc antibody; also called anti-CADM3 VHH-Fc antibody iCADM3_3R1-L8; not shown: Hinge-CH2-CH3 region of the human IgG4 heavy chain constant region (IgG4 variant)

- Mean fluorescence intensity ratio [6]: 2.21
- Mean fluorescence intensity ratio [7]: 3.71
B5: iCADM3_3R1-L8_01 VHH-hG4PE(R409K) (Fc fusion)
chain: QVQLVQSGGGLVQPGGSLRLSCAASGRTFSNYARGWFRQAPGKGREFVAAIDYSGGSTNYADSAKGRFTISRDNSKNTLYLQMNSLRAEDTAVYYCAAPASRRPSWDADGYDYWGQGTLVTVSS
notes: also called iCADM3-3R1-L8_01 humanized antibody; not shown: Hinge-CH2-CH3 region of the human IgG4 heavy chain constant region (IgG4 variant)

- Mean fluorescence intensity ratio [6]: 2.8
- Mean fluorescence intensity ratio [7]: 4.83
B6: iCADM3_3R1-L8_02 VHH-hG4PE(R409K) (Fc fusion)
chain: QVQLVQSGGGLVQPGGSLRLSCAASGRTFSNYARGWFRQAPGKEREFVAAIDYSGGSTNYADSAKGRFTISRDNSKNTLYLQMNSLRAEDTAVYYCAAPASRRPSWDADGYDYWGQGTLVTVSS
notes: also called iCADM3-3R1-L8_02 humanized antibody; not shown: Hinge-CH2-CH3 region of the human IgG4 heavy chain constant region (IgG4 variant)

- binding result [8]: binds
- binding result [9]: binds
- Mean fluorescence intensity ratio [4]: 9.4
- Mean fluorescence intensity ratio [5]: 10.4
B7: CADM3448 hG4PE(R409K) (antibody, V domains shown)
VH: QVQLQQSGPGLVKPAQTLSLTCAISGDSVSSNSVAWNWVRQSPSRGLEWLGRTYYRSQWYNDYAGSVRSRITISADTSKNQFSLQLNSVTPEDTALYYCVRANRKLPAPGQHFYYGMDVWGQGTTVTVSS
VL: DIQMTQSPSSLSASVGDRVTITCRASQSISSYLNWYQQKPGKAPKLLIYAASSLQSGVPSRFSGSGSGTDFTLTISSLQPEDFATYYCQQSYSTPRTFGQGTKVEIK
notes: Human IgG4 variant (S228P, L235E, R409K), vector pCI-hKG4PE(R409K)

- binding result [8]: binds
- binding result [9]: binds
- Mean fluorescence intensity ratio [4]: 44.9
- Mean fluorescence intensity ratio [5]: 36.1
B8: CADM3501 hG4PE(R409K) (antibody, V domains shown)
VH: EVQLVESGGGLVQPGGALRLSCSASGFTFSGYWMHWVRQAPGKGLEWVSQISSSGTIIDSADFVKGRFAVSRDNAKDLLYLQMNSLRADDTAVYYCARGPLAKNGFDIWGQGTMVTVSS
VL: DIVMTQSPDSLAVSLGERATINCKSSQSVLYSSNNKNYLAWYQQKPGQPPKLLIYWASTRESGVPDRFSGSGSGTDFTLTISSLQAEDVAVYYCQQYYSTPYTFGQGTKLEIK
notes: as for B7
